Reference: patent US20260250352A1 (ALPINE IMMUNE SCIENCES, published 2026)
Like-named read-outs stand apart in the source and are kept apart here. Values belong to the binder of their own block, whether it stands above or below them.

Tests used:
recombinant human APRIL [1] = biological target: T1, recombinant human APRIL (human, UniProt O75888 105-250, limits assumed); assay: cell-based or functional assay
T1 sequence (looked up): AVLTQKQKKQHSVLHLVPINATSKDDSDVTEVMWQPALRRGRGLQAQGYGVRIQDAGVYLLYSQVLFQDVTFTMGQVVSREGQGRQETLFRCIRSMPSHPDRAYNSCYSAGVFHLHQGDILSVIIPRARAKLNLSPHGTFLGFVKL

recombinant mouse BAFF [2] = biological target: T2, recombinant mouse BAFF (mouse, UniProt Q9WU72 127-309); assay: cell-based or functional assay
T2 sequence (Q9WU72 127-309 limits assumed): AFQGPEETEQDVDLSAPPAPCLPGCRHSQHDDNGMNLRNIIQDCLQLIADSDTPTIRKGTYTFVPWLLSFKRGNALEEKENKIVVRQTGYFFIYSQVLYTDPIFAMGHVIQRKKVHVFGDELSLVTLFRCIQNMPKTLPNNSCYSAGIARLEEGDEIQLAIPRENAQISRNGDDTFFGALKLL

recombinant human BAFF [3] = biological target: T3, recombinant human BAFF (human, UniProt Q9Y275 134-285); assay: cell-based or functional assay
recombinant mouse APRIL [4] = biological target: T4, recombinant mouse APRIL (mouse, UniProt Q9D777 96-241, limits assumed); assay: cell-based or functional assay
T4 sequence (looked up): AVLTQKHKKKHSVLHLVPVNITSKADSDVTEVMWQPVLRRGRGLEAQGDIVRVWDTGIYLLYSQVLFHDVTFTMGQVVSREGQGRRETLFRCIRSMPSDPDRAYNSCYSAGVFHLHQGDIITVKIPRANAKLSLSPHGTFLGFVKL

recombinant human APRIL [5] = biological target: T1, recombinant human APRIL; assay: SPR, apparent (ka app); apparent (ka app)
recombinant human BAFF [6] = biological target: T3, recombinant human BAFF; assay: SPR
recombinant human APRIL [7] = biological target: T1, recombinant human APRIL; assay: cell-based or functional assay; remark: listed apart in the source
recombinant human BAFF [8] = biological target: T3, recombinant human BAFF; assay: cell-based or functional assay; remark: listed apart in the source
recombinant mouse BAFF [9] = biological target: T2, recombinant mouse BAFF; assay: cell-based or functional assay; remark: listed apart in the source
recombinant human APRIL [10] = biological target: T1, recombinant human APRIL; assay: SPR, apparent (KD app)
recombinant human BAFF [11] = biological target: T3, recombinant human BAFF; assay: cell-based or functional assay; remark: listed apart in the source
recombinant human APRIL [12] = biological target: T1, recombinant human APRIL; assay: cell-based or functional assay; remark: listed apart in the source
recombinant mouse BAFF [13] = biological target: T2, recombinant mouse BAFF; assay: cell-based or functional assay; remark: listed apart in the source
recombinant human BAFF [14] = biological target: T3, recombinant human BAFF; assay: cell-based or functional assay; remark: listed apart in the source
rat BAFF = rat BAFF (rat); assay: cell-based or functional assay
recombinant mouse APRIL [15] = biological target: T4, recombinant mouse APRIL; assay: cell-based or functional assay; remark: listed apart in the source
cynomolgus monkey BAFF = cynomolgus monkey BAFF (cynomolgus monkey, UniProt A0A2K5V2X4 134-285); assay: cell-based or functional assay
cynomolgus monkey APRIL = cynomolgus monkey APRIL (cynomolgus monkey); assay: cell-based or functional assay
rat APRIL = rat APRIL (rat); assay: cell-based or functional assay
[16] = biological target: single chain APRIL-BAFF-BAFF heterotrimer (ABB) (human, UniProt O75888 111-250; Q9Y275 140-285; Q9Y275 140-285, limits assumed); assay: cell-based or functional assay
BAFF 60-mer = BAFF 60-mer (human, UniProt Q9Y275 134-285, limits assumed); assay: cell-based or functional assay
[17] = biological target: single chain BAFF-APRIL-APRIL heterotrimer (BAA) (human, UniProt Q9Y275 140-285; O75888 111-250; O75888 111-250, limits assumed); assay: cell-based or functional assay
[18] = biological target: single chain BAFF homotrimer (BAFF-BAFF-BAFF) (human, UniProt Q9Y275 140-285, limits assumed); assay: cell-based or functional assay
recombinant human BAFF [19] = biological target: T3, recombinant human BAFF; assay: cell-based or functional assay; remark: listed apart in the source
recombinant human APRIL [20] = biological target: T1, recombinant human APRIL; assay: cell-based or functional assay; remark: listed apart in the source
recombinant human BAFF [21] = biological target: T3, recombinant human BAFF; assay: cell-based or functional assay; remark: listed apart in the source
recombinant human APRIL [22] = biological target: T1, recombinant human APRIL; assay: SPR, apparent (kd app)
recombinant human APRIL [23] = biological target: T1, recombinant human APRIL; assay: cell-based or functional assay; remark: listed apart in the source
recombinant human BAFF [24] = biological target: T3, recombinant human BAFF; assay: cell-based or functional assay; remark: listed apart in the source
recombinant human APRIL [25] = biological target: T1, recombinant human APRIL; assay: cell-based or functional assay; remark: listed apart in the source
recombinant human BAFF [26] = biological target: T3, recombinant human BAFF; assay: cell-based or functional assay; remark: listed apart in the source
recombinant human APRIL [27] = biological target: T1, recombinant human APRIL; assay: cell-based or functional assay; remark: listed apart in the source
recombinant human BAFF [28] = biological target: T3, recombinant human BAFF; assay: cell-based or functional assay; remark: listed apart in the source
recombinant human BAFF [29] = biological target: T3, recombinant human BAFF; assay: SPR; remark: listed apart in the source
recombinant human APRIL [30] = biological target: T1, recombinant human APRIL; assay: cell-based or functional assay; remark: listed apart in the source
recombinant human BAFF [31] = biological target: T3, recombinant human BAFF; assay: cell-based or functional assay; remark: listed apart in the source

IC50, TACI/Jurkat/NF-kB reporter (recombinant human APRIL [1]): 73.1 nM
IC50, TACI/Jurkat/NF-kB reporter (recombinant mouse BAFF [2]): 9.4 nM
IC50, TACI/Jurkat/NF-kB reporter (recombinant human BAFF [3]): 19.6 nM
IC50, TACI/Jurkat/NF-kB reporter (recombinant mouse APRIL [4]): 14.3 nM
B1: WT TACI 13-118-Fc based on the published telitacicept sequence (Fc fusion)
chain: SRVDQEERFPQGLWTGVAMRSCPEEQYWDPLLGTCMSCKTICNHQSQRTCAAFCRSLSCRKEQGKFYDHLLRDCISCASICGQHPKQCAYFCENKLRSPVNLPPEL

kon (recombinant human APRIL [5]): 7e+09 M⁻¹ s⁻¹
fold better affinity than telitacicept (recombinant human BAFF [6]): ~8 fold
IC50, Jurkat/NF-kB/TACI reporter (recombinant human APRIL [7]): 214 nM
IC50 relative to TACI 30-110 (recombinant human APRIL [7]): 0.05 ratio
IC50, Jurkat/NF-kB/TACI reporter (recombinant human BAFF [8]): 1270 nM
IC50 relative to TACI 30-110 (recombinant human BAFF [8]): 0.28 ratio
IC50 (read off the curve), mouse BAFF, NF-κB luciferase reporter, Jurkat/NF-κB/TACI cells (recombinant mouse BAFF [9]): ~1000 pM
Kd (recombinant human APRIL [10]): 1 pM
IC50 (read off the curve), human BAFF, NF-κB luciferase reporter, Jurkat/NF-κB/TACI cells (recombinant human BAFF [11]): ~1000 pM
IC50, Jurkat/NF-kB/TACI reporter (recombinant human APRIL [12]): 3.4 nM
IC50, Jurkat/NF-kB/TACI reporter (recombinant mouse BAFF [13]): 15.2 nM
IC50, Jurkat/NF-kB/TACI reporter (recombinant human BAFF [14]): 2.8 nM
IC50, Jurkat/NF-kB/TACI reporter (rat BAFF): 3.8 nM
IC50, Jurkat/NF-kB/TACI reporter (recombinant mouse APRIL [15]): 24.5 nM
IC50, Jurkat/NF-kB/TACI reporter (cynomolgus monkey BAFF): 1.9 nM
IC50, Jurkat/NF-kB/TACI reporter (cynomolgus monkey APRIL): 3.3 nM
IC50, Jurkat/NF-kB/TACI reporter (rat APRIL): 22.7 nM
IC50, TACI/Jurkat/NF-kB reporter [16]: 103 pM
IC50, TACI/Jurkat/NF-kB reporter (BAFF 60-mer): 14.7 nM
IC50, TACI/Jurkat/NF-kB reporter [17]: < 16 pM
IC50, TACI/Jurkat/NF-kB reporter [18]: 3.36 nM
IC50 (read off the curve), human BAFF, NF-κB luciferase reporter, TACI/Jurkat/NF-κB cells (recombinant human BAFF [19]): 1 to 2 nM
fold better neutralization than the anti-APRIL mAb (recombinant human APRIL [20]): 5.7 fold
fold better neutralization than belimumab (recombinant human BAFF [21]): 3.4 fold
koff (recombinant human APRIL [22]): 0.007 s⁻¹
IC50, Jurkat/NF-kB/TACI reporter (recombinant human APRIL [23]): 179 nM
IC50 relative to TACI 30-110-Fc (recombinant human APRIL [23]): 0.05 ratio
IC50, Jurkat/NF-kB/TACI reporter (recombinant human BAFF [24]): 1220 nM
IC50 relative to TACI 30-110-Fc (recombinant human BAFF [24]): 0.21 ratio
IC50, Jurkat/NF-kB/TACI reporter (recombinant human APRIL [25]): 1760 pM
IC50, Jurkat/NF-kB/TACI reporter (recombinant human BAFF [26]): 1340 pM
IC50, Jurkat/NF-kB/TACI reporter (recombinant human APRIL [27]): 9.21 nM
IC50 relative to WT TACI (68-110)-Fc (Δ WT) (recombinant human APRIL [27]): 0.75 ratio
IC50, Jurkat/NF-kB/TACI reporter (recombinant human BAFF [28]): 1550 pM
IC50 relative to WT TACI (68-110)-Fc (Δ WT) (recombinant human BAFF [28]): 0.84 ratio
IC50, TACI/Jurkat/NF-kB reporter (recombinant human APRIL [1]): 3.8 nM
IC50, TACI/Jurkat/NF-kB reporter (recombinant mouse BAFF [2]): 1 nM
IC50, TACI/Jurkat/NF-kB reporter (recombinant human BAFF [3]): 1.4 nM
IC50, TACI/Jurkat/NF-kB reporter (recombinant mouse APRIL [4]): 0.9 nM
Kd (recombinant human BAFF [29]): 0.0593 nM
koff (recombinant human BAFF [29]): 3.67e-05 s⁻¹
kon (recombinant human BAFF [29]): 619000 M⁻¹ s⁻¹
B2: 26 TACI CRD2-Fc (Fc fusion)
chain: SLSCRKEQGEYYDHLLRDCISCASICGQHPKQCADFCENKLRSGSGGGGSEPKSSDKTHTCPPCPAPEAEGAPSVFLFPPKPKDTLMISRTPEVTCVVVDVSHEDPEVKFNWYVDGVEVHNAKTKPREEQYNSTYRVVSVLTVLHQDWLNGKEYKCKVSNKALPAPIEKTISKAKGQPREPQVYTLPPSRDELTKNQVSLTCLVKGFYPSDIAVEWESNGQPENNYKTTPPVLDSDGSFFLYSKLTVDKSRWQQGNVFSCSVMHEALHNHYTQKSLSLSPG
notes: also called TACI (26)-Fc_73; 26 TACI-Fc

IC50 (read off the curve), human APRIL, NF-κB luciferase reporter, Jurkat/TACI/NF-κB cells (recombinant human APRIL [30]): ~3000 pM
IC50 (read off the curve), human BAFF, NF-κB luciferase reporter, Jurkat/TACI/NF-κB cells (recombinant human BAFF [31]): ~2000 pM
B3: 7 TACI CRD1/CRD2-Fc (Fc fusion)
variant TACI CRD1/CRD2 - linker - Fc chain: VAMRSCPEEQYWDPLLGTCMSCKTICNHQSQRTCAAFCRSLSCRKEQGKFYDHLLRDCISCASICGQHPKQCDYFCENKLRSGSGGGGSEPKSSDKTHTCPPCPAPEAEGAPSVFLFPPKPKDTLMISRTPEVTCVVVDVSHEDPEVKFNWYVDGVEVHNAKTKPREEQYNSTYRVVSVLTVLHQDWLNGKEYKCKVSNKALPAPIEKTISKAKGQPREPQVYTLPPSRDELTKNQVSLTCLVKGFYPSDIAVEWESNGQPENNYKTTPPVLDSDGSFFLYSKLTVDKSRWQQGNVFSCSVMHEALHNHYTQKSLSLSPG
